The assay has as its target histidine kinase UzcS (Caulobacter crescentus NA1000). Put plainly: cell-based or functional assay.

Some results are limits rather than exact numbers.

Chain of histidine kinase UzcS (Caulobacter crescentus NA1000) (chain, as listed by the source limits assumed, form in doubt): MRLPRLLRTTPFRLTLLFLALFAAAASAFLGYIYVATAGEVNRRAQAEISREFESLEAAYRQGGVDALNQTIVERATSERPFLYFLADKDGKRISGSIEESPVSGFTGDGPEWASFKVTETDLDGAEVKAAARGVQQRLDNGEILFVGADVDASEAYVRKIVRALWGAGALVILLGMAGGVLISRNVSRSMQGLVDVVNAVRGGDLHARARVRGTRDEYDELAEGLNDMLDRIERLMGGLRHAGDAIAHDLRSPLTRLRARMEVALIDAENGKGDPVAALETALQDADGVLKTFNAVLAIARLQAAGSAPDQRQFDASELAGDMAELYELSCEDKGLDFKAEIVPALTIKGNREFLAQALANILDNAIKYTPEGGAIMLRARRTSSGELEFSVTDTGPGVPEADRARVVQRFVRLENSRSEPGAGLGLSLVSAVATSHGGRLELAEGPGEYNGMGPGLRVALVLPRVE

UzcY: the fold decrease in U detection limit of UzcRS (reporter fluorescence with and without UzcY, FIG. 12) is over 4 fold.

The values are drawn from patent publication US12571058.
